From patent US12104181B2, “Compositions and methods for treating viral infections targeting TRIM7” (THE BOARD OF REGENTS OF THE UNIVERSITY OF TEXAS SYSTEM, priority 2021, dated 2024)

System: coxsackievirus B3 (CVB3-GFP)
Assay type: cell-based
Conditions: HeLa cells, replicate R1; for Percent Infected R1: GFP-positive cells within RFP-positive gate

Molecule	Percent Infected R1 [%]	Z score R1
RNF11: human RING type E3 ligase expressed from lentiviral vector (protein, UniProt Q9Y3C5 2-154, looked up) RING finger protein 11: GNCLKSPTSDDISLLHESQSDRASFGEGTEPDQEPPPPYQEQVPVPVYHPTPSQTRLATQLTEEEQIRIAQRIGLIQHLPKGVYDPGRDGSEKKIRECVICMMDFVYGDPIRFLPCMHIYHLDCIDDWLMRSFTCPSCMEPVDAALLSSYETN	90.7	0.03
RNFT2: human RING type E3 ligase expressed from lentiviral vector (protein, UniProt Q96EX2 1-444, looked up) E3 ubiquitin-protein ligase …: MWLFTVNQVLRKMQRRHSSNTDNIPPERNRSQALSSEASVDEGGVFESLKAEAASPPALFSGLSGSLPTSSFPSSLVLGSSAGGGDVFIQMPASREEGGGRGEGGAYHHRQPHHHFHHGGHRGGSLLQHVGGDHRGHSEEGGDEQPGTPAPALSELKAVICWLQKGLPFILILLAKLCFQHKLGIAVCIGMASTFAYANSTLREQVSLKEKRSVLVILWILAFLAGNTLYVLYTFSSQQLYNSLIFLKPNLEMLDFFDLLWIVGIADFVLKYITIALKCLIVALPKIILAVKSKGKFYLVIEELSQLFRSLVPIQLWYKYIMGDDSSNSYFLGGVLIVLYSLCKSFDICGRVGGVRKALKLLCTSQNYGVRATGQQCTEAGDICAICQAEFREPLILLCQHVFCEECLCLWLDRERTCPLCRSVAVDTLRCWKDGATSAHFQVY	86.5	−0.03
RNF146: human RING type E3 ligase expressed from lentiviral vector (protein, UniProt Q9NTX7 1-359, looked up) E3 ubiquitin-protein ligase …: MMAGCGEIDHSINMLPTNRKANESCSNTAPSLTVPECAICLQTCVHPVSLPCKHVFCYLCVKGASWLGKRCALCRQEIPEDFLDKPTLLSPEELKAASRGNGEYAWYYEGRNGWWQYDERTSRELEDAFSKGKKNTEMLIAGFLYVADLENMVQYRRNEHGRRRKIKRDIIDIPKKGVAGLRLDCDANTVNLARESSADGADSVSAQSGASVQPLVSSVRPLTSVDGQLTSPATPSPDASTSLEDSFAHLQLSGDNTAERSHRGEGEEDHESPSSGRVPAPDTSIEETESDASSDSEDVSAVVAQHSLTQQRLLVSNANQTVPDRSDRSGTDRSVAGGGTVSVSVRSRRPDGQCTVTEV	89.7	0.01
RNF148: human RING type E3 ligase expressed from lentiviral vector (protein, UniProt Q8N7C7 35-305, looked up) RING finger protein 148: KAIWTAHLNITFQVGNEITSELGESGVFGNHSPLERVSGVVALPEGWNQNACHPLTNFSRPKQADSWLALIERGGCTFTHKINVAAEKGANGVIIYNYQGTGSKVFPMSHQGTENIVAVMISNLKGMEILHSIQKGVYVTVIIEVGRMHMQWVSHYIMYLFTFLAATIAYFYLDCVWRLTPRVPNSFTRRRSQIKTDVKKAIDQLQLRVLKEGDEELDLNEDNCVVCFDTYKPQDVVRILTCKHFFHKACIDPWLLAHRTCPMCKCDILKT	82.3	−0.08
RNF139: human RING type E3 ligase expressed from lentiviral vector (protein, UniProt Q8WU17 2-664, looked up) E3 ubiquitin-protein ligase …: AAVGPPQQQVRMAHQQVWAALEVALRVPCLYIIDAIFNSYPDSSQSRFCIVLQIFLRLFGVFASSIVLILSQRSLFKFYTYSSAFLLAATSVLVNYYASLHIDFYGAYNTSAFGIELLPRKGPSLWMALIVLQLTFGIGYVTLLQIHSIYSQLIILDLLVPVIGLITELPLHIRETLLFTSSLILTLNTVFVLAVKLKWFYYSTRYVYLLVRHMYRIYGLQLLMEDTWKRIRFPDILRVFWLTRVTAQATVLMYILRMANETDSFFISWDDFWDLICNLIISGCDSTLTVLGMSAVISSVAHYLGLGILAFIGSTEEDDRRLGFVAPVLFFILALQTGLSGLRPEERLIRLSRNMCLLLTAVLHFIHGMTDPVLMSLSASHVSSFRRHFPVLFVSACLFILPVLLSYVLWHHYALNTWLFAVTAFCVELCLKVIVSLTVYTLFMIDGYYNVLWEKLDDYVYYVRSTGSIIEFIFGVVMFGNGAYTMMFESGSKIRAFMMCLHAYFNIYLQAKNGWKTFMNRRTAVKKINSLPEIKGSRLQEINDVCAICYHEFTTSARITPCNHYFHALCLRKWLYIQDTCPMCHQKVYIEDDIKDNSNVSNNNGFIPPNETPEEAVREAAAESDRELNEDDSTDCDDDVQRERNGVIQHTGAAAEEFNDDTD	77.5	−0.14
RNF133: human RING type E3 ligase expressed from lentiviral vector (protein, UniProt Q8WVZ7 1-376, looked up, lentiviral expression, human RING type E3 ligase expressed from lentiviral vector) E3 ubiquitin-protein ligase …: MHLLKVGTWRNNTASSWLMKFSVLWLVSQNCCRASVVWMAYMNISFHVGNHVLSELGETGVFGRSSTLKRVAGVIVPPEGKIQNACNPNTIFSRSKYSETWLALIERGGCTFTQKIKVATEKGASGVIIYNVPGTGNQVFPMFHQAFEDVVVVMIGNLKGTEIFHLIKKGVLITAVVEVGRKHIIWMNHYLVSFVIVTTATLAYFIFYHIHRLCLARIQNRRWQRLTTDLQNTFGQLQLRVVKEGDEEINPNGDSCVICFERYKPNDIVRILTCKHFFHKNCIDPWILPHGTCPICKCDILKVLGIQVVVENGTEPLQVLMSNELPETLSPSEEETNNEVSPAGTSDKVIHVEENPTSQNNDIQPHSVVEDVHPSP	94.9	0.08
RNF113B: human RING type E3 ligase expressed from lentiviral vector (protein, UniProt Q8IZP6 1-322, looked up, lentiviral expression, human RING type E3 ligase expressed from lentiviral vector) RING finger protein 113B: MAAPPSPGRTADQADQVCTFLFKKPGRKGAAGLRKRPACDPEHGESSSSGDEGDTVAQPPRVAPRPRGLHSWQKAAHGDRRGEEAAPESLDVVYRSTRSAKPVGPEDMGATADFEQDTEKEHHTPTILKCSQRVQEALRGREHDHIYRGIHSYLRYLKPKDTSMGNSSSGMARKGPIRAPGHLRATVRWDYQPDICKDYKETGFCGFGDSCKFLHDRSDYKLGWEIERELEEGRYCICEDENHEVGSEEEEIPFRCFICRQAFQNPVVTKCRHYFCESCALEHFRATPRCYICDQPTGGIFNPAKELMAKLQKLQAAEGKKR	88	−0.01
RNF2: human RING type E3 ligase expressed from lentiviral vector (protein, UniProt Q99496 2-336, looked up) E3 ubiquitin-protein ligase …: SQAVQTNGTQPLSKTWELSLYELQRTPQEAITDGLEIVVSPRSLHSELMCPICLDMLKNTMTTKECLHRFCADCIITALRSGNKECPTCRKKLVSKRSLRPDPNFDALISKIYPSRDEYEAHQERVLARINKHNNQQALSHSIEEGLKIQAMNRLQRGKKQQIENGSGAEDNGDSSHCSNASTHSNQEAGPSNKRTKTSDDSGLELDNNNAAMAIDPVMDGASEIELVFRPHPTLMEKDDSAQTRYIKTSGNATVDHLSKYLAVRLALEELRSKGESNQMNLDTASEKQYTIYIATASGQFTVLNGSFSLELVSEKYWKVNKPMELYYAPTKEHK	87.4	−0.02
